Test [1] concerns the target T1, human TNFR1-His tagged protein (human, UniProt P19438 30-211, limits assumed).
T1 construct: also called soluble human TNFR1; not shown: His tag
T1 sequence (looked up): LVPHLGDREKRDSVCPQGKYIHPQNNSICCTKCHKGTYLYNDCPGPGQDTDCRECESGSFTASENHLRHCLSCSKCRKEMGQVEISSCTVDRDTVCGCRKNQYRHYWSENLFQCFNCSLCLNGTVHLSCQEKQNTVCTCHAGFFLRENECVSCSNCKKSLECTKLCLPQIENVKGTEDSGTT
Kind of test: ELISA on coated TNFR1, OD 450 nm. The procedure: (§1) To test binding to TNFR family members, target proteins were coated on ELISA plates at 1 μg/mL at 4° C. overnight. Plates were washed, blocked, and antibodies were added at indicated concentrations for 1 hour at RT. Positive control antibodies for each protein were used at ˜1 ug/mL. Antibodies were washed and detected with anti-human IgG HRP for 1 hour. Assay was developed using TMB substrate for 10 minutes. For cell-binding, human CD4+ T cells purified from buffy coats were cultured in flat-bottom plates with anti-CD3/CD28 for 24 hours. Cells were harvested and stained for viability, CD4, CD25 and FOXP3. Test antibody staining was detected using anti-human IgG APC. Binding titration of test antibodies was evaluated on CD4+CD25hiFOXP3+ regulatory T cells and plotted as percent binding.
A general note: ELISA stands for enzyme-linked immunosorbent assay.

Test [2] concerns the target T2, human TNFR2-His tagged protein (soluble) (human, UniProt P20333 23-257).
T2 construct: also called hTNFR2 (soluble); soluble TNFR2-His; not shown: His tag
T2 sequence (looked up): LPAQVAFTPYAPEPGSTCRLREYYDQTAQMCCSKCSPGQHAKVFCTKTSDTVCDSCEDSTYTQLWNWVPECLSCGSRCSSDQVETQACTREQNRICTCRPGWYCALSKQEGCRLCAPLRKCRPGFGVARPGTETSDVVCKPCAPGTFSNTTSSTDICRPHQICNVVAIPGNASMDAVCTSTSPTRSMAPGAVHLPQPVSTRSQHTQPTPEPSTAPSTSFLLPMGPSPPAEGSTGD
The experiment in a line: ELISA on coated hTNFR2-His, OD 450 nm.

Test [3] concerns the target T3, human TNFR2 expressed on cells (human, UniProt P20333 23-461).
T3 construct: whole, on cells; also called hTNFR2 (cell); CHO-TNFR2
T3 sequence (looked up): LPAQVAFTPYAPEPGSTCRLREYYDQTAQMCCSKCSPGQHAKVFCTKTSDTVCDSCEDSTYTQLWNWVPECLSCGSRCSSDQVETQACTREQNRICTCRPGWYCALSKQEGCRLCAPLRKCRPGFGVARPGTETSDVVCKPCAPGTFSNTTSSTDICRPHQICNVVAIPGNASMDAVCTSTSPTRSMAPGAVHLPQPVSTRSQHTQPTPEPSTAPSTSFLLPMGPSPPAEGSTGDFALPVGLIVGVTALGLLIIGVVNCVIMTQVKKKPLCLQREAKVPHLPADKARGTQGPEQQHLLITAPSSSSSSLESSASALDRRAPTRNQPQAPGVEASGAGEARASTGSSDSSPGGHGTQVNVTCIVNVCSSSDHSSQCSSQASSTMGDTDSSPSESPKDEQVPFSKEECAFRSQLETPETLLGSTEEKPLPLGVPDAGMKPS
The experiment in a line: blocking of biotinylated TNF-α on TNFR2-CHO cells, flow cytometry. The procedure:
TNFR2-overexpressing CHO cells were plated at 100,000 cells per well. Cells were incubated with the indicated antibodies for 30 minutes on ice. […] Cells were analyzed using Cytoflex or MACSQuant flow cytometer. Assay was repeated twice.
(Flow cytometry measures light scatter and fluorescence of single cells or particles in a stream.)

In test [4] the target is T3, human TNFR2 expressed on cells. The experiment in a line: Primary Cell Affinity; binding titration on activated human Tregs, flow cytometry. On the procedure:
as §1

In test [5] the target is T4, cynomolgus TNFR2-His tagged protein (cynomolgus, UniProt A0A2K5VET2 132-366).
T4 construct: also called Cyno TNFR2; cynomolgus TNFR2 protein; not shown: His tag
T4 sequence: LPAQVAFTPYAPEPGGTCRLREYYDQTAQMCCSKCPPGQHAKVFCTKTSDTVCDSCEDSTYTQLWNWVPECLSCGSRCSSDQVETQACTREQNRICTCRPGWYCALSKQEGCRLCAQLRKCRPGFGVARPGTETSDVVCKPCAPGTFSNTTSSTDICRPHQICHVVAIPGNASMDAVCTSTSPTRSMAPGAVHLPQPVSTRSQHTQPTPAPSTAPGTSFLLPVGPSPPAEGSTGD
The experiment in a line: ELISA, cynomolgus TNFR2.

For test [6], the target named is T3, human TNFR2 expressed on cells. The experiment in a line: cell binding on TNFR2-overexpressing (OE) cells.
Test [7] deals with T2, human TNFR2-His tagged protein (soluble). The experiment in a line: ELISA, soluble human TNFR2.
Test [8] has as its target T4, cynomolgus TNFR2-His tagged protein. The experiment in a line: ELISA on coated cynoTNFR2-His, OD 450 nm.
Test [9] concerns the target T3, human TNFR2 expressed on cells. Kind of test: flow cytometry, cell-expressed human TNFR2.
The target in test [10] is T5, herpesvirus entry mediator (HVEM) (UniProt Q92956 39-202, limits assumed).
T5 sequence (looked up): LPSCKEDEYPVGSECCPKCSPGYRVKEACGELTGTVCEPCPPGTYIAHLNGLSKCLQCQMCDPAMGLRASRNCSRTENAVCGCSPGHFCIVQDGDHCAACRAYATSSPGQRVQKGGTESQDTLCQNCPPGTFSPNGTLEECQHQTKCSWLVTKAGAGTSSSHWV
Kind of test: ELISA on coated HVEM, OD 650 nm. The procedure: as §1

In the next test the target is CD40 (UniProt P25942 21-193, limits assumed). Kind of test: ELISA on coated CD40, OD 650 nm. The procedure:
as §1

Test [11] deals with T3, human TNFR2 expressed on cells. Kind of test: flow cytometry on cells expressing human TNFR2, MFI median.
A further test has as its target T6, TNFR-Fc (UniProt P20333 23-257, limits assumed).
T6 construct: Printed only as TNFR-Fc; not shown: Fc part
T6 sequence (looked up): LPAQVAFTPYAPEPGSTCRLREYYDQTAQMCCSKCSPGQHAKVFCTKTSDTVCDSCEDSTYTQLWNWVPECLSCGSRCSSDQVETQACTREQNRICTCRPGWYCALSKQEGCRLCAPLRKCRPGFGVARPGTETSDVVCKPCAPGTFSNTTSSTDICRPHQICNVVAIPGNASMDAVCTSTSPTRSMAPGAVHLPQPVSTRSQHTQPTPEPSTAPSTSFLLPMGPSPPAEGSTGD
Kind of test: TNF-α blocking ELISA (soluble).

The record followed here is patent US20220372154A1 (APEXIGEN, published 2022).

Chain of CD40 (P25942 21-193 limits assumed): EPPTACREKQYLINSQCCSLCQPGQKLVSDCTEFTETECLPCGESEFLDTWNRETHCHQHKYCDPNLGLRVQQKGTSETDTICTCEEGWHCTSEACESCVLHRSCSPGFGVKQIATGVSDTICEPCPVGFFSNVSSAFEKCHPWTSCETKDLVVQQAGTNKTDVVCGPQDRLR

B1: humanized antibody h600-25-71 (antibody, V domains shown)
VH: EVQLVESGGGLVQPGGSLRLSCAASGIDLSSYAMGWVRQAPGKGLEWVGDISTSGNAYYATWVKGRFTISRDNSKNTLYLQMNSLRAEDTAVYYCARADYGGETYAFDPWGQGTLVTVSS
VL: DIQMTQSPSSLSASVGDRVTITCQASQSISSYLNWYQQKPGKAPKLLIYSASTLASGVPSRFSGSGSGTDFTLTISSLQPEDFATYYCQQGYSDSNIDNVFGGGTKVEIK
notes: also called Ab 25-71; clone 25-71
The term EC50 (read off the curve) denotes the concentration at which the effect is half-maximal. One may read the IC50 as the point on the concentration scale where inhibition reaches its midpoint. The low end stands for greater potency in that assay, the high end for weaker potency in that assay. As a reminder, the Kd is the concentration at which binding is half-saturated. As usually defined, the EC50 is the concentration at which the effect is half-maximal. A high value points to a need for much substance. With B1, the binding result (in test [1]; in [10]; in the test with CD40) was “no binding (tested: about 67 nM)” each time. The “EC50 (read off the curve)” value is around 0.2 nM in test [2], around 0.1 nM in test [8] and around 0.3 nM in [11]. For the same molecule, the half-maximal inhibitory concentration (IC50) in [3] came to 0.149 nM; in the test with TNFR-Fc it was 1.96 nM. Also, the dissociation constant Kd turned out to be 0.047 nM in test [4] and 0.12 nM in test [6]. Moreover, the EC50 in [5] turned out to be 0.123 nM; in test [7], 0.159 nM; in [9], 0.242 nM.
